In patent publication US20240309113A1 (SUZHOU TRANSCENTA THERAPEUTICS, published 2024):

T1: Recombinant Human Complement Component C1s (human, UniProt P09871 16-688, limits assumed)
T1 construct: Bought protein, construct not described; also called human C1s
T1 sequence (looked up): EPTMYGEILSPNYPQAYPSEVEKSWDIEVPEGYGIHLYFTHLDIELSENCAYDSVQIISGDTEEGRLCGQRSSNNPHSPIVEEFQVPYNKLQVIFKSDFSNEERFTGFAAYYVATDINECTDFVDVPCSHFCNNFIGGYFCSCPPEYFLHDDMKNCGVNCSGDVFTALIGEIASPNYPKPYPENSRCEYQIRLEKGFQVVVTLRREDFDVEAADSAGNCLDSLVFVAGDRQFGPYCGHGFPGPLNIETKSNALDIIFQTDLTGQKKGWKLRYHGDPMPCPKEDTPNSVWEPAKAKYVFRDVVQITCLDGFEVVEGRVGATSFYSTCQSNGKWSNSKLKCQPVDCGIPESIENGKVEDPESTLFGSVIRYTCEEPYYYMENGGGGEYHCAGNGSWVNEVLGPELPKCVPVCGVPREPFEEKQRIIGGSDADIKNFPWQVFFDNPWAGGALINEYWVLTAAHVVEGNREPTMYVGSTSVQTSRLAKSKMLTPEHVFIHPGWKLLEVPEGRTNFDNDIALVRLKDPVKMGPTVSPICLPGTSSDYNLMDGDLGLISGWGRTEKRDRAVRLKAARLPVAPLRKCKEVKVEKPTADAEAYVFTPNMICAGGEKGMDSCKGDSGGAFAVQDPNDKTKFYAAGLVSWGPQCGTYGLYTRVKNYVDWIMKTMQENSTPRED

T2: Recombinant Human MASP-3 (human, UniProt P48740-2 20-728, limits assumed)
T2 construct: Bought protein, construct not described
T2 sequence (looked up): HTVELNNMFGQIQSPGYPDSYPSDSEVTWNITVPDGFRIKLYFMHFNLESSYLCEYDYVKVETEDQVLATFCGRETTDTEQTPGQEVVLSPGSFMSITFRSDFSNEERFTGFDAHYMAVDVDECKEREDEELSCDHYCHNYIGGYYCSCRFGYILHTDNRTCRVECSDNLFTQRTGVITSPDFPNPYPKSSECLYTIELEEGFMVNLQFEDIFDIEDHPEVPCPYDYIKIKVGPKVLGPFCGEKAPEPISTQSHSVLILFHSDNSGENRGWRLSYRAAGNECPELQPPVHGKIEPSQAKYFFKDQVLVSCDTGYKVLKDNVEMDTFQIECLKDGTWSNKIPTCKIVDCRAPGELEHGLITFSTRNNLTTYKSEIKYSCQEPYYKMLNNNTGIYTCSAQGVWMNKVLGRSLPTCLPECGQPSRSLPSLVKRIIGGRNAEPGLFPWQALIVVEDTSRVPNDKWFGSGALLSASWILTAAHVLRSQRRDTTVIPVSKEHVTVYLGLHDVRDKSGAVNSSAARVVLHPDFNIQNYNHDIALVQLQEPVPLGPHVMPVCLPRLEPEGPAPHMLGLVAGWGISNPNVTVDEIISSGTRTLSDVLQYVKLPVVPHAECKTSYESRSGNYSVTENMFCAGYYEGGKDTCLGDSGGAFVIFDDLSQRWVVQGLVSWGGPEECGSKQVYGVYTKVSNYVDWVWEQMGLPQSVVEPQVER

T3: Recombinant Human MASP-1 (human, UniProt P48740 20-699, limits assumed)
T3 construct: Bought protein, construct not described
T3 sequence (looked up): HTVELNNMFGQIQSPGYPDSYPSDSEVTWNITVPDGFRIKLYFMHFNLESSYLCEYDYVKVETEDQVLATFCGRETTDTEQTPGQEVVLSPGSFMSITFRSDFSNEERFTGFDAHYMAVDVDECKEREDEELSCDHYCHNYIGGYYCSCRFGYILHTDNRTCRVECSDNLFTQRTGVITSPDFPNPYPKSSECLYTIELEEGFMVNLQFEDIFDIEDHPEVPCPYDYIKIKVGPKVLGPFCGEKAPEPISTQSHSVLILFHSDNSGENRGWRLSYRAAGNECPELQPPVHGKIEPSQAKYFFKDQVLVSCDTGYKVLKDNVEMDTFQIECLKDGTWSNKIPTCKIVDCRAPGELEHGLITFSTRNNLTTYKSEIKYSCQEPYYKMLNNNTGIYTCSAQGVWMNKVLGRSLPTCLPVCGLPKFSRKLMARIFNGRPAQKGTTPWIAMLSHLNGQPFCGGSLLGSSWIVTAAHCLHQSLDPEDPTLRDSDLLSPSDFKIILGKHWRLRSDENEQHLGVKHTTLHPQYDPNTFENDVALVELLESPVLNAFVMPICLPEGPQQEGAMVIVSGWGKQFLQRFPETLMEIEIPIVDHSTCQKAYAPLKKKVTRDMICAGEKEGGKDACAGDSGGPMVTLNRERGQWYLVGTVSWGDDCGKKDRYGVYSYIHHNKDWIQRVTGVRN

B1: 129C10 HaLa (129C10-hu) (antibody, human IgG4)
VH: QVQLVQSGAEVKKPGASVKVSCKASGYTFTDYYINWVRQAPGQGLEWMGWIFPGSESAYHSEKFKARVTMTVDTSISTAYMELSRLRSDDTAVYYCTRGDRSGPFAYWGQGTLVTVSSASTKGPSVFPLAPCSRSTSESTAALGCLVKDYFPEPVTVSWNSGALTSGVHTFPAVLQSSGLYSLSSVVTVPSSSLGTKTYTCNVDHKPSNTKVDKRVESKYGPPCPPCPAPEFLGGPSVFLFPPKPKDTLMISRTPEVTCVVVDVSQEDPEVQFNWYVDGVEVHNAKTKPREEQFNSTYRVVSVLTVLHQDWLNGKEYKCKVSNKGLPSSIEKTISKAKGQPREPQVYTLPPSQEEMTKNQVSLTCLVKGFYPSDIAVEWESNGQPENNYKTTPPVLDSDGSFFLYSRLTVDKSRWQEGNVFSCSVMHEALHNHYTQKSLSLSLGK
VL: DVVMTQSPLSLPVTLGQPASISCKSSQSLLYSNGKTYLNWLQQRPGQSPRRLIYLVSKLDSGVPDRFSGSGSGTDFTLKISRVEAEDVGVYYCVQVTHFPFTFGQGTKLEIKRTVAAPSVFIFPPSDEQLKSGTASVVCLLNNFYPREAKVQWKVDNALQSGNSQESVTEQDSKDSTYSLSSTLTLSKADYEKHKVYACEVTHQGLSSPVTKSFNRGEC
notes: Humanized; also called 129C10-hu-WT; Hu129C10_HaLa-hIgG4
B2: 129C10-hu-YTE (Hu129C10 hIgG4_YTE kappa) (antibody)
heavy: QVQLVQSGAEVKKPGASVKVSCKASGYTFTDYYINWVRQAPGQGLEWMGWIFPGSESAYHSEKFKARVTMTVDTSISTAYMELSRLRSDDTAVYYCTRGDRSGPFAYWGQGTLVTVSSASTKGPSVFPLAPCSRSTSESTAALGCLVKDYFPEPVTVSWNSGALTSGVHTFPAVLQSSGLYSLSSVVTVPSSSLGTKTYTCNVDHKPSNTKVDKRVESKYGPPCPPCPAPEFLGGPSVFLFPPKPKDTLYITREPEVTCVVVDVSQEDPEVQFNWYVDGVEVHNAKTKPREEQFNSTYRVVSVLTVLHQDWLNGKEYKCKVSNKGLPSSIEKTISKAKGQPREPQVYTLPPSQEEMTKNQVSLTCLVKGFYPSDIAVEWESNGQPENNYKTTPPVLDSDGSFFLYSRLTVDKSRWQEGNVFSCSVMHEALHNHYTQKSLSLSLGK
light: B1 VL
notes: also called Hu129C10_HaLa-hIgG4 with amino acid substitutions M252Y/S254T/T256E [YTE]

Columns and labels:
[1] = target: T4, human MASP-2 protein (recombinant, full-length, C-terminal tag) (human, UniProt O00187 16-686); test: ELISA; plate coated with human MASP2, serially diluted antibody, anti-human IgG4 HRP, OD at 450nm; concentration axis printed as 'Antibody conc.(nM)'
T4 construct: The protein was secreted and purified on an anti-FLAG or anti-HIS column; also called hMASP-2; Full-length human MASP-2 protein; not shown: C-terminal HIS-tag or FLAG-tag

[2] = target: T5, Mouse MASP2 (mouse, UniProt Q91WP0); test: ELISA; plate coated with mouse MASP2 (1 ug/ml), serially diluted antibody, mouse anti-human IgG4 Fc HRP, OD450 (fit value printed for a flat curve)
T5 construct: purchased protein coated on the ELISA plate at 1 ug/ml

[3] = target: T1, Recombinant Human Complement Component …; test: ELISA; plate coated with recombinant human C1s, serially diluted antibody, mouse anti-human IgG4 HRP, OD450 (fit value printed for a flat curve)
[4] = target: T6, Cyno MASP2; test: ELISA; plate coated with cynomolgus MASP2 (1 ug/ml), serially diluted antibody, mouse anti-human IgG4 Fc HRP, OD450
T6 construct: Recombinant coated protein; distinct from m29 (native MASP-2 in cynomolgus serum); also called cynomolgus MASP-2 (recombinant, generated in house)

[5] = target: T4, human MASP-2 protein (recombinant, …); test: ELISA; plate coated with human MASP2 (1 ug/ml), serially diluted antibody, mouse anti-human IgG4 Fc HRP, OD450
[6] = target: T7, Human FcRn (FCGRT&B2M) protein with His tag (human, UniProt P55899 24-297; P61769 21-119); test: BLI (ForteBio), His-tagged human FcRn on Ni-NTA biosensor, antibody in solution (500, 167, 56, 19 nM)
T7 construct: Carries a His tag (held on Ni-NTA biosensors)

[7] = target: T2, Recombinant Human MASP-3; test: ELISA; plate coated with recombinant human MASP-3, mouse anti-human IgG4 HRP, OD450
[8] = target: T3, Recombinant Human MASP-1; test: ELISA; plate coated with recombinant human MASP-1, mouse anti-human IgG4 HRP, OD450
[9] = target: T4, human MASP-2 protein (recombinant, …); test: BLI (ForteBio Octet RED96), antibody on Protein A biosensor, human MASP-2 in solution (100, 50, 25 nM)
[10] = target: T8, Rat MASP2 (rat, UniProt Q9JJS8); test: ELISA; plate coated with rat MASP2 (1 ug/ml), serially diluted antibody, mouse anti-human IgG4 Fc HRP, OD450 (fit value printed for a flat curve)
T8 construct: purchased protein coated on the ELISA plate at 1 ug/ml

[11] = target: T7, Human FcRn (FCGRT&B2M) protein with His …; test: BLI (ForteBio), His-tagged human FcRn on Ni-NTA biosensor

T7 sequence (P55899 24-297 limits assumed, chain 1 of 2): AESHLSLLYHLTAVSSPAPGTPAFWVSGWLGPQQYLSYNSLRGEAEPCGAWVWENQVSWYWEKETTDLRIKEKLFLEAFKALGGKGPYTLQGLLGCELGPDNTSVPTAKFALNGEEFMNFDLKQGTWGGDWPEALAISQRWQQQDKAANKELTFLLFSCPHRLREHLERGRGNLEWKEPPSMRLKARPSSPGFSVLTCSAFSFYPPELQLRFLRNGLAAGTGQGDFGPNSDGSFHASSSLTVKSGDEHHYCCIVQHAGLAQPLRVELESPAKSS
T7 sequence (P61769 21-119 limits assumed, chain 2 of 2): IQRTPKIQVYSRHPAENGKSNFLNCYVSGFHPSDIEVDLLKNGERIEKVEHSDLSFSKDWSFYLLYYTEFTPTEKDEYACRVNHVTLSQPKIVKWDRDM
T4 sequence (O00187 16-686): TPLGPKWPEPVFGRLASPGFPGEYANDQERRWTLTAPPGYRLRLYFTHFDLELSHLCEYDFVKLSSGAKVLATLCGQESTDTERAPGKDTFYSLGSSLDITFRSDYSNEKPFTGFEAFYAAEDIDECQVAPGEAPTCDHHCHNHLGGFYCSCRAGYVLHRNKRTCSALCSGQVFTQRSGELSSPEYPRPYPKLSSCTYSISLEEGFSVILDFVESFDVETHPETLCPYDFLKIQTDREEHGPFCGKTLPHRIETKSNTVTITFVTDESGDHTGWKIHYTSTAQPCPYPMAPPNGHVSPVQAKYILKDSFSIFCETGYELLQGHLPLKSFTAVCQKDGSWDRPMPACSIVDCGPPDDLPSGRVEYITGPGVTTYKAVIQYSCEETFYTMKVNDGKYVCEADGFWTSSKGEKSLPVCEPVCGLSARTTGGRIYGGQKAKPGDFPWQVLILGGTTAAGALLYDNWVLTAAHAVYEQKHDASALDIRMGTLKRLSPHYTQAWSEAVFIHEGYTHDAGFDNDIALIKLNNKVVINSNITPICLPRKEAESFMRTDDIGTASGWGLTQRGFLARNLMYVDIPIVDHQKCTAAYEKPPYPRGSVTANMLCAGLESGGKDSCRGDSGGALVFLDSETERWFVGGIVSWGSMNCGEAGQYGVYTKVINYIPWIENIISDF
T6 sequence (MASP-2 polypeptide, as listed by the source limits assumed): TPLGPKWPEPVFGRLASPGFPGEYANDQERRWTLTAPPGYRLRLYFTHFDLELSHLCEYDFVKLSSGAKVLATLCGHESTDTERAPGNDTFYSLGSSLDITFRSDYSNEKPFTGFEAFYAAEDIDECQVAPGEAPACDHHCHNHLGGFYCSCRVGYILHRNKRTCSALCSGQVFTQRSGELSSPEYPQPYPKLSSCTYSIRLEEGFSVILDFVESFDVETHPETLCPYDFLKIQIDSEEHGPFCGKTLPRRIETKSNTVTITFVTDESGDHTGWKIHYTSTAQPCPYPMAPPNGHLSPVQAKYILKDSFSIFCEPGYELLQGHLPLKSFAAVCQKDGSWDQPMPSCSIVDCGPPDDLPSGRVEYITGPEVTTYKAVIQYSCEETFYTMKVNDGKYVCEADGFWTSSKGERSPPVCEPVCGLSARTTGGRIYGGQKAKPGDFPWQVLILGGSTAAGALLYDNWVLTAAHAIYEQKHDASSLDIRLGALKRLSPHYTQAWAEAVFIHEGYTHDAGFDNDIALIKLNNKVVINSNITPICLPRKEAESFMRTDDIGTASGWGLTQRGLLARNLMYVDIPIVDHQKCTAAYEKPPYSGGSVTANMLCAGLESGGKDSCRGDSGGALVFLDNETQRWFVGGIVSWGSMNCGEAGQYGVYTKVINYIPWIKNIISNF
T8 sequence (Q9JJS8 20-685 limits assumed): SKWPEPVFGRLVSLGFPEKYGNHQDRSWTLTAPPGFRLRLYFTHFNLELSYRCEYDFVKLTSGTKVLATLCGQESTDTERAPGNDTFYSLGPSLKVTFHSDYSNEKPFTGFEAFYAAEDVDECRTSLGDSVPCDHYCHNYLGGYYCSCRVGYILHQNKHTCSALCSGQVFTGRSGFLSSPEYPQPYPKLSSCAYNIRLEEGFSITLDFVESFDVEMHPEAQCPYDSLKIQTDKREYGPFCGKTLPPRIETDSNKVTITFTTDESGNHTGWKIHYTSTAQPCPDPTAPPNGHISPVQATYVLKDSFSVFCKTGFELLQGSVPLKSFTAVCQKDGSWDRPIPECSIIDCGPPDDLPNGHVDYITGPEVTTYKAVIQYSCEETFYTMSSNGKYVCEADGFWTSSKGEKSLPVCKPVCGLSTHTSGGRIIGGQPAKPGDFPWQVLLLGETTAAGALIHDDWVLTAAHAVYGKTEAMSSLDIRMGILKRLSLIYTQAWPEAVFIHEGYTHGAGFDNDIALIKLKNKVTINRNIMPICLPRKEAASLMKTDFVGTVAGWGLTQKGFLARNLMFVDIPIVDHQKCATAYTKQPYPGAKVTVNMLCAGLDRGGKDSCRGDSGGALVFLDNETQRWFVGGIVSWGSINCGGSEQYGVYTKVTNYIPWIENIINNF
T5 sequence (Q91WP0 20-685 limits assumed): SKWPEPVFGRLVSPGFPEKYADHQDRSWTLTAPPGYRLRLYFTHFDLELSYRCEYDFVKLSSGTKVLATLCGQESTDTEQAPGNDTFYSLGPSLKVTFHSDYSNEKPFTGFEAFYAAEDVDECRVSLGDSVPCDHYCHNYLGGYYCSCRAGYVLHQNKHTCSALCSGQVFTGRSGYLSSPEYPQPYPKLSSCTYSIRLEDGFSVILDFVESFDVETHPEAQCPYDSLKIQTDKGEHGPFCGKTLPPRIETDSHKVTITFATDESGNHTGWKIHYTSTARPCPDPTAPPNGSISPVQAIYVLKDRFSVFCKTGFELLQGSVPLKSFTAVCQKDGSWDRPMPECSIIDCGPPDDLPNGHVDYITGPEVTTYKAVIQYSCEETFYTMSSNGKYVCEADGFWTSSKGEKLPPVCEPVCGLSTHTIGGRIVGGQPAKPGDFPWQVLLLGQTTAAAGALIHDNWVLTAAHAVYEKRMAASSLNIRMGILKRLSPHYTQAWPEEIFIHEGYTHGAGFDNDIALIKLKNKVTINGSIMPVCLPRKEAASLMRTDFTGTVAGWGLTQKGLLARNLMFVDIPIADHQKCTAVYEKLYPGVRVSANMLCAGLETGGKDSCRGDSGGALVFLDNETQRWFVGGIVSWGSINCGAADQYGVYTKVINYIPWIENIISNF

Binder	EC50 [1]	EC50 [2]	EC50 [3]	EC50 [4]	EC50 [5]	Kd [6]	koff [6]	kon [6]	binding result [7]	binding result [8]	Kd [9]	koff [9]	kon [9]	EC50 [10]	fold increase of binding affinity against 129C10-hu [11]
B1	0.0162 nM	~672 µg/mL	~1.65 µg/mL	0.0111 µg/mL	0.0127 µg/mL	6.1 nM	0.00317 s⁻¹	520000 M⁻¹ s⁻¹	no binding (tested: about 2 ug/ml)	no binding (tested: about 2 ug/ml)	< 0.001 nM	< 1e-07 s⁻¹	35300 M⁻¹ s⁻¹	17.2 µg/mL	
B2						1.88 nM	0.00101 s⁻¹	536000 M⁻¹ s⁻¹							3 fold
